Consider four molecules from article doi:10.1101/2024.11.01.621267 (bioRxiv, 2024).

By Kd is commonly meant a measure of binding affinity in units of concentration. One may read the stoichiometry N as the number of molecules, sites or subunits per partner or assembly.

B1: HsLARP4 peptide 615–625 (peptide)
peptide: RKLSYAEVCQK
notes: La-related protein 4 (LARP4), human, residues 615-625 (within CR2); source: synthetic peptide (GenScript)
B2: HsLARP4 peptide 575–625 (peptide)
peptide: LNQTTIPVSPPSTTKPSRASTASPCNNNINAATAVALQEPRKLSYAEVCQK
notes: La-related protein 4 (LARP4), human, residues 575-625; source: synthetic peptide (GenScript)
B3: HsLARP4 peptide 587–637 (peptide)
peptide: TTKPSRASTASPCNNNINAATAVALQEPRKLSYAEVCQKPPKEPSSVLVQP
notes: La-related protein 4 (LARP4), human, residues 587-637; source: synthetic peptide (GenScript)
B4: HsLARP4 peptide 612–625 (peptide)
peptide: QEPRKLSYAEVCQK
notes: La-related protein 4 (LARP4), human, residues 612-625; source: synthetic peptide (GenScript)

In this assay the target is recombinant full-length RACK1 protein (ITC) (human, UniProt P63244 1-317). Briefly: ITC; LARP4 peptide (400 μM; 300 μM for 600–625) injected into RACK1 (40 μM; 30 μM) in the cell; iTC200; 298K; 20 mM HEPES, 300 mM NaCl, 10% glycerol, 1 mM DTT pH 7.5; triplicate. Particulars: both partners purified. Background: In ITC the heat of successive injections is recorded.
Turning to B1, the Kd amounted to 3000 nM, the dH is -8.1 kcal/mol and the “stoichiometry N” value amounted to 0.9.
For the molecule B2, the Ka is 370000 M⁻¹, the Kd was determined as 2700 nM, the dH is -5.7 kcal/mol and the “stoichiometry N” value was 1.
With B3, the Ka was determined as 440000 M⁻¹, the Kd amounted to 2300 nM, the dH is -7.8 kcal/mol and the “stoichiometry N” value is 1.
Take B4: the Kd was found to be 2000 nM, the dH was -8.3 kcal/mol and the “stoichiometry N” value stood at 0.8.
